Source: patent publication US20110318308A1, “LIPOCALIN-TYPE PROSTAGLANDIN D2 SYNTHASE AS A BIOMARKER FOR LUNG CANCER PROGRESSION AND PROGNOSIS” (WINTHROP-UNIVERSITY HOSPITAL, priority 2010, published 2011)
“Also recorded” adds a separate entry of the source.

What was measured:
A549 cells [1] = details: cited from earlier work
[2] = test system: mouse lung epithelial (MLE) cells; test: MTS cell proliferation assay, control mouse lung epithelial (MLE) cells; type: cell-based; details: 18 h incubation
Experimental: (§1) The effect of exogenously added L-PGDS on lung cell growth in culture was determined by MTS proliferation assay (Promega, Madison, Wis.). […] MLE cell proliferation was unaffected at L-PGDS concentrations up to […] but ceased at a concentration of 25 mg/l and above, as shown in FIG. 6.
(§2) Cell proliferation was measured with the use of a CellTiter 96 AQeous Non-Radioactive Cell Proliferation Assay (Promega, Madison, Wis.). Briefly, cells were plated in 96-well plates at a density of 500 cells/well in 200 μl of medium with 5% FBS. The cells were incubated at 37° C. in a humidified 5% CO2 atmosphere for the indicated time, after which 20 μl of combined MTS/PMS solution (Promega) was added per well. After a 2 h incubation at 37° C., absorbance at 490 nm was measured using an enzyme-linked immunosorbent assay (ELISA) plate reader. Data represent the average absorbance of three experiments each performed in triplicate.

A549 cells [3] = test: MTS cell proliferation assay, A549 cells with exogenously added L-PGDS; type: cell-based, human; details: for A549 hyperproliferation: exogenously added L-PGDS, qualitative statement
Experimental: as §1, §2
The effect of exogenously added L-PGDS on A549 proliferation was observed.

A549 cells [4] = test: PDGF-stimulated trans-well migration assay, A549 cells; type: cell-based, human; details: for decrease in PGDF stimulated A549 migration: 5 h, trans-well inserts; for PDGF-stimulated migration of A549 cells: exogenously added L-PGDS, qualitative statement
Experimental: Migration assays were performed using 24-well cell culture inserts with 8.0 μm polyethylene terephthalate cyclopore membranes (Falcon) as detailed in Lundberg M S, Curto K A, Bilato C, Monticone R E, Crow M T. Regulation of vascular smooth muscle migration by mitogen-activated protein kinase and calcium/calmodulin-dependent protein kinase II signaling pathways. J Mol Cell Cardiol 1998; 30:2377-89. The underside of the membrane was coated with 100 μl rat tail collagen type I (50 μg/ml) for 18-20 h, washed and air-dried before each experiment. Cells were trypsinized and re-suspended in RPMI. Then 2×10^4 cells/250 μl were loaded into the cell culture inserts. The inserts were then added to the wells of 24-well plates which were filled with PDGF-BB diluted in RPMI with 0.1% BSA, and where indicated, L-PGDS was also added to this medium below the inserts.
The chambers were then incubated at 37° C. for 5 h to allow for cell migration. Afterwards, cells were completely removed from the upper side of the membrane with a cotton swab and the remaining migrated cells fixed and stained with Diff-Quik® solution (Dade Behring, Newark, Del.). Results are reported as the mean+/−SEM of five different fields, from three experiments, counted at 200× magnification.
The effect of L-PGDS on A549 migration was examined using trans-well inserts. FIG. 7 illustrates a 42% decrease in PGDF stimulated A549 migration in the presence of […] L-PGDS and a 77% decrease in the presence of […] L-PGDS. […] Cells were cultured and loaded into collagen coated […] cell culture inserts in the absence or presence of L-PGDS (25 or 50 μg/ml) as described above. Actual fields at 200× magnification are presented.

[5] = test system: Lipocalin-type prostaglandin D2 synthase (EC=5.3.99.2); details: alanine substitution in human L-PGDS; Zhou et al., FASEB J. 2010; cited from earlier work

In the case of CCCCC/C=C/C=C1/C(=O)C=C[C@@H]1C/C=C\CCCC(=O)O [15d-PGD2, 15-deoxy-Delta12,14-prostaglandin J2], the “role in PGD2-induced apoptosis in A549 cells” value (A549 cells [1]; PGD2 metabolites) is given as “likely candidate for the principal apoptotic inducer”.

In the case of CCCCC[C@H](O)/C=C/[C@H]1C(=O)C[C@H](O)[C@@H]1C/C=C\CCCC(=O)O [PGD2, Prostaglandin D2], the “A549 cell death / apoptosis” value (A549 cells [1]; A549 cells treated with PGD2) is given as “induces A549 cell death through the intrinsic apoptotic pathway” and the “involvement of DP or CRTH2/DP2 in PGD2-induced A549 cell death” value (A549 cells [1]; DP and CRTH2/DP2 blocked with BWA868C and ramatroban) is given as “does not appear to involve either DP or CRTH2/DP2”.

B1: L-PGDS: Lipocalin-type prostaglandin D2 synthase protein, exogenously added to cultured cells (protein, UniProt P41222 23-190, looked up)
Prostaglandin-H2 D-isomerase: APEAQVSVQPNFQQDKFLGRWFSAGLASNSSWLREKKAALSMCKSVVAPATDGGLNLTSTFLRKNQCETRTMLLQPAGSLGSYSYRSPHWGSTYSVSVVETDYDQYALLYSQGSKGPGEDFRMATLYSRTQTPRAELKEKFTAFCKAQGFTEDTIVFLPQTDKCMTEQ
For B1, the “L-PGDS concentration at which MLE cell proliferation ceased” value [2] was at least 25 mg/L, the “L-PGDS concentrations at which MLE cell proliferation was unaffected” value [2] was “up to 10 mg/dl” and the A549 cell proliferation (A549 cells [3]; L-PGDS 1-50 mg/l, 18 h incubation, MTS assay) was “marked inhibition”. The “A549 hyper-proliferative growth (OD490nm)” value (A549 cells [3]; exogenously added L-PGDS 0, 10, 25, 50 μg/ml, proliferation determined after 2 h) was “dose responsive inhibition”, the A549 hyperproliferation (A549 cells [3]) was “suppresses” and the A549 hyperproliferation (A549 cells [3]; listed as LPGDS) was “suppress”. The “decrease in PGDF stimulated A549 migration” value (A549 cells [4]; 25 μg/μl L-PGDS) was 42%, the “decrease in PGDF stimulated A549 migration” value (A549 cells [4]; 50 μg/μl L-PGDS) was 77% and the A549 migration inhibition (A549 cells [4]; 100 μg/μl L-PGDS (data not shown)) was “no further increase in migration inhibition”. For the same molecule, the “PDGF-stimulated migration of A549 cells” value (A549 cells [4]) was “suppresses; also recorded: inhibits” and the “PDGF-stimulated migration of A549 cells” value (A549 cells [4]; listed as LPGDS) was “suppress”.

B2: 79 L→A: human L-PGDS with residue 79 L changed to A (protein, UniProt P41222 23-190, looked up, variant L79A)
Prostaglandin-H2 D-isomerase: APEAQVSVQPNFQQDKFLGRWFSAGLASNSSWLREKKAALSMCKSVVAPATDGGLNATSTFLRKNQCETRTMLLQPAGSLGSYSYRSPHWGSTYSVSVVETDYDQYALLYSQGSKGPGEDFRMATLYSRTQTPRAELKEKFTAFCKAQGFTEDTIVFLPQTDKCMTEQ
For B2, the “change of enzyme activity by sequence modification” value (shortened to “change of enzyme activity”) [5] is listed as “Reduces enzyme activity over ten-fold”.

B3: 83 F→A: human L-PGDS with residue 83 F changed to A (protein, UniProt P41222 23-190, looked up, variant F83A)
Prostaglandin-H2 D-isomerase: APEAQVSVQPNFQQDKFLGRWFSAGLASNSSWLREKKAALSMCKSVVAPATDGGLNLTSTALRKNQCETRTMLLQPAGSLGSYSYRSPHWGSTYSVSVVETDYDQYALLYSQGSKGPGEDFRMATLYSRTQTPRAELKEKFTAFCKAQGFTEDTIVFLPQTDKCMTEQ
In the case of B3, the “change of enzyme activity” value [5] is listed as “Reduces enzyme activity about five-fold”.

B4: 59 K→A: human L-PGDS with residue 59 K changed to A (protein, UniProt P41222 23-190, looked up, variant K59A)
Prostaglandin-H2 D-isomerase: APEAQVSVQPNFQQDKFLGRWFSAGLASNSSWLREKAAALSMCKSVVAPATDGGLNLTSTFLRKNQCETRTMLLQPAGSLGSYSYRSPHWGSTYSVSVVETDYDQYALLYSQGSKGPGEDFRMATLYSRTQTPRAELKEKFTAFCKAQGFTEDTIVFLPQTDKCMTEQ
In the case of B4, the “change of enzyme activity” value [5] is given as “Increases enzyme activity about two-fold”.

B5: 131 L→A: human L-PGDS with residue 131 L changed to A (protein, UniProt P41222 23-190, looked up, variant L131A)
Prostaglandin-H2 D-isomerase: APEAQVSVQPNFQQDKFLGRWFSAGLASNSSWLREKKAALSMCKSVVAPATDGGLNLTSTFLRKNQCETRTMLLQPAGSLGSYSYRSPHWGSTYSVSVVETDYDQYALAYSQGSKGPGEDFRMATLYSRTQTPRAELKEKFTAFCKAQGFTEDTIVFLPQTDKCMTEQ
In the case of B5, the “change of enzyme activity” value [5] is given as “Reduces enzyme activity almost ten-fold”.

B6: 149 Y→A: human L-PGDS with residue 149 Y changed to A (protein, UniProt P41222 23-190, looked up, variant Y149A)
Prostaglandin-H2 D-isomerase: APEAQVSVQPNFQQDKFLGRWFSAGLASNSSWLREKKAALSMCKSVVAPATDGGLNLTSTFLRKNQCETRTMLLQPAGSLGSYSYRSPHWGSTYSVSVVETDYDQYALLYSQGSKGPGEDFRMATLASRTQTPRAELKEKFTAFCKAQGFTEDTIVFLPQTDKCMTEQ
For B6, the “change of enzyme activity” value [5] is listed as “Increases enzyme activity about two-fold”.

B7: 64 M→A: human L-PGDS with residue 64 M changed to A (protein, UniProt P41222 23-190, looked up, variant M64A)
Prostaglandin-H2 D-isomerase: APEAQVSVQPNFQQDKFLGRWFSAGLASNSSWLREKKAALSACKSVVAPATDGGLNLTSTFLRKNQCETRTMLLQPAGSLGSYSYRSPHWGSTYSVSVVETDYDQYALLYSQGSKGPGEDFRMATLYSRTQTPRAELKEKFTAFCKAQGFTEDTIVFLPQTDKCMTEQ
For B7, the “change of enzyme activity” value [5] is given as “Reduces enzyme activity almost ten-fold”.
